Laboratory results reported in patent publication US20260166158A1, “HSP90-BINDING CONJUGATES AND FORMULATIONS THEREOF” (Fusion Pharmaceuticals Inc., priority 2019, published 2026).

Tests used:
[1] = test system: NCI-H460 tumor-bearing mice (lung cancer); test: Biodistribution: lutetium accumulation in tumor, plasma and healthy tissues by ICP-MS; type: in vivo; conditions: for T/K (Tumor/Kidney ratio) / T/L (Tumor/Liver ratio) / T/P (Tumor/Plasma ratio) / Kidney uptake, % ID/g 24 h / Liver uptake, % ID/g 24 h / Plasma, % ID/g 24 h / Tumor uptake, % ID/g, 24 h / % ID/g uptake, H460 tumor, 24 h / % ID/g uptake, Kidney, 24 h / % ID/g uptake, Liver, 24 h / % ID/g uptake, Plasma, 24 h: 24 h; for Kidney uptake, % ID/g 24 h / Liver uptake, % ID/g 24 h / Plasma, % ID/g 24 h / Tumor uptake, % ID/g, 24 h: second table; for % ID/g uptake, H460 tumor, 24 h / % ID/g uptake, H460 tumor, 72 h / % ID/g uptake, Kidney, 24 h / % ID/g uptake, Kidney, 72 h / % ID/g uptake, Liver, 24 h / % ID/g uptake, Liver, 72 h / % ID/g uptake, Plasma, 24 h / % ID/g uptake, Plasma, 72 h: 0.5 mg/kg lutetium conjugate
Protocol: Lutetium accumulation was measured in tumor, plasma and healthy tissues of NCI-H460 tumor-bearing mice (lung cancer). NCJ-H460 tumor bearing mice were dosed with 0.5 mg/kg of lutetium conjugates. At the time points indicated, mice were sacrificed and tumor, liver, kidneys and plasma were taken. All tissues were analyzed for lutetium content by ICP-MS, and lutetium uptake in % ID/g determined by the following equation: […]
Biodistribution at 24 h and Tumor/Kidney ratio (T/K), Tumor/Liver ratio (T/L), Tumor/Plasma ratio (T/P) are give in the table below.

NCI-H460 tumor model [2] = test: Distribution of cold (Lu175) analog of CMP6; type: in vivo
Protocol: In yet another study with the NCI-H460 tumor model, the distribution of the cold analog of CMP6 was measured at 24 hours and 72 hours.

NCI-H460 tumor model [3] = test: Distribution of radioactive (177Lu) versus non-radioactive (175Lu) analog of CMP51; type: in vivo; conditions: radioactive analog comprising Lu177
Protocol: In another study with the NCI-H460 tumor model, the distribution of the radioactive (hot) analog of CMP51 (177Lu) and the distribution of the non-radioactive (cold) analog of CMP51 (175Lu) at 24 hours and 72 hours were tested and compared.

[4] = target: T1, purified N-terminal HSP90a (Homo sapiens, UniProt P07900); test: HSP90 binding, competitive fluorescence polarization assay
T1 construct: 350 ng of N-terminal HSP90a
Protocol: HSP90 binding was determined by a competitive fluorescence polarization assay with purified N-terminal HSP90a. A series of dilutions of the test compounds were prepared with 10% DMSO in assay buffer and 10 μl of the dilution was added to a 100 μl reaction so that the final concentration of DMSO is 1% in all reactions. The reactions were conducted at room temperature for 3 hours in a 100 μl mixture containing assay buffer, 5 nM FITC Labeled Geldanamycin, 350 ng of N-terminal HSP90a, and the test compound. Fluorescence intensity was measured at an excitation of 485 nm and an emission of 530 nm using a Tecan Infinite M1000 microplate reader. Fluorescence intensity is converted to fluorescence polarization using the Tecan Magellan6 software. The fluorescence polarization data were analyzed using the computer software, Graphpad Prism. The fluorescence polarization (FPt) in absence of the compound in each data set was defined as 100% activity. In the absence of protein and the compound, the value of fluorescent polarization (FPb) in each data set was defined as 0% activity. The percent activity in the presence of the compound was calculated according to the following equation: % activity=(FP−FPb)/(FPt−FPb)×100%, where FP=the fluorescence polarization in the presence of the compound. HSP90 binding data are below.

[5] = cold analog, 24 hours and 72 hours, FIG. 2

## CCNC(=O)c1nnc(-c2cc(C(C)C)c(O)cc2O)n1-c1ccc(OC2CCN(C(=O)CCOCCOCCOCCOCCNC(=O)[C@H](CCCCNC(=O)CCCc3ccc(I)cc3)NC(=O)CN3CCN4CCN5CCN(CC3)CC(=O)[O][Lu]([O]C(=O)C4)[O]C(=O)C5)CC2)cc1 [CMP6]
[1]
  T/K (Tumor/Kidney ratio): 5.48
  T/L (Tumor/Liver ratio): 4.98
  T/P (Tumor/Plasma ratio): 1.98
  Kidney uptake, % ID/g 24 h: 0.62 % ID/g
  Liver uptake, % ID/g 24 h: 0.68 % ID/g
  Plasma, % ID/g 24 h: 1.72 % ID/g
  Tumor uptake, % ID/g, 24 h: 3.40 % ID/g
NCI-H460 tumor model [2]; [5]
  kidney uptake and retention: significantly reduced kidney uptake and retention
  liver uptake: significantly reduced
NCI-H460 tumor model [2]; cold analog, 72 hours versus 24 hours
  tumor to liver and tumor to kidney ratios at 72 hours: enhanced at 72 hours
NCI-H460 tumor model [2]; cold analog, FIG. 2
  tumor to liver and tumor to kidney ratios: High tumor to liver and tumor to kidney ratios
NCI-H460 tumor model [2]; non-radioactive analog comprising Lu175
  tumor retention selectivity (FIG. 2 legend): selective tumor retention over kidney and liver

## CCNC(=O)c1nnc(-c2cc(C(C)C)c(O)cc2O)n1-c1ccc(CN2CCN(C(=O)CCNC(=O)[C@@H](CCC(=O)O)NC(=O)[C@@H](CCC(=O)O)NC(=O)[C@@H](CCC(=O)O)NC(=O)COCCOCCNC(=O)CCCCn3cc(CN(CCCNC(=O)CC[C@H](C(=O)O)N4CCN5CCN6CC(=O)[O][Lu]([O]C(=O)C5)[C]5(C6)OC(=O)CN5CC4)C(=O)CCCNC(=O)CCCc4ccc(I)cc4)nn3)CC2)cc1 (some centres unmarked) [CMP51]
[1]
  T/K (Tumor/Kidney ratio): 0.7
  T/L (Tumor/Liver ratio): 5.6
  T/P (Tumor/Plasma ratio): 2.5
  Kidney uptake, % ID/g 24 h: 10.37 % ID/g
  Liver uptake, % ID/g 24 h: 1.35 % ID/g
  Plasma, % ID/g 24 h: 3.01 % ID/g
  Tumor uptake, % ID/g, 24 h: 7.54 % ID/g
NCI-H460 tumor model [3]
  tumor exposure selectivity (FIG. 1 legend): selective tumor exposure with the exception of kidney

## CCNC(=O)c1nnc(-c2cc(C(C)C)c(O)cc2O)n1-c1ccc(CN2CCN(C(=O)CCNC(=O)[C@@H](CCC(=O)N3CCN(Cc4ccc(-n5c(C(=O)NCC)nnc5-c5cc(C(C)C)c(O)cc5O)cc4)CC3)NC(=O)CCNC(=O)[C@@H](CCC(=O)O)NC(=O)[C@@H](CCC(=O)O)NC(=O)[C@@H](CCC(=O)O)NC(=O)COCCOCCNC(=O)CC[C@H](C(=O)O)N3CCN4CCN5CCN(CC3)CC(=O)[O][Lu]([O]C(=O)C5)[O]C(=O)C4)CC2)cc1 [T4]
[1]
  % ID/g uptake, H460 tumor, 24 h: 3.06 % ID/g
  % ID/g uptake, H460 tumor, 72 h: 2.19 % ID/g
  % ID/g uptake, Kidney, 24 h: 4.86 % ID/g
  % ID/g uptake, Kidney, 72 h: 2.28 % ID/g
  % ID/g uptake, Liver, 24 h: 0.59 % ID/g
  % ID/g uptake, Liver, 72 h: 0.62 % ID/g
  % ID/g uptake, Plasma, 24 h: 0.21 % ID/g
  % ID/g uptake, Plasma, 72 h: 0.09 % ID/g
[4]
  Kd: 0.45 nM

## CCNC(=O)c1nnc(-c2cc(C(C)C)c(O)cc2O)n1-c1ccc(OC2CCN(C(=O)CCNC(=O)[C@@H](CCC(=O)N3CCC(Oc4ccc(-n5c(C(=O)NCC)nnc5-c5cc(C(C)C)c(O)cc5O)cc4)CC3)NC(=O)CC[C@H](C(=O)O)N3CCN4CCN5CCN(CC3)CC(=O)[O][Lu]([O]C(=O)C5)[O]C(=O)C4)CC2)cc1 [T6]
[1]
  % ID/g uptake, H460 tumor, 24 h: 7.00 % ID/g
  % ID/g uptake, H460 tumor, 72 h: 4.52 % ID/g
  % ID/g uptake, Kidney, 24 h: 6.77 % ID/g
  % ID/g uptake, Kidney, 72 h: 2.57 % ID/g
  % ID/g uptake, Liver, 24 h: 10.70 % ID/g
  % ID/g uptake, Liver, 72 h: 8.90 % ID/g
  % ID/g uptake, Plasma, 24 h: 1.65 % ID/g
  % ID/g uptake, Plasma, 72 h: 1.89 % ID/g
[4]
  Kd: 0.45 nM

## CCNC(=O)c1nnc(-c2cc(C(C)C)c(O)cc2O)n1-c1ccc(CN2CCN(C(=O)CCNC(=O)[C@@H](CCC(=O)N3CCN(Cc4ccc(-n5c(C(=O)NCC)nnc5-c5cc(C(C)C)c(O)cc5O)cc4)CC3)NC(=O)CCNC(=O)[C@@H](CCC(=O)O)NC(=O)[C@@H](CCC(=O)O)NC(=O)[C@@H](CCC(=O)O)NC(=O)COCCOCCNC(=O)[C@H](Cc3ccccc3)NC(=O)CNC(=O)CNC(=O)CC[C@H](C(=O)O)N3CCN4CCN5CCN(CC3)CC(=O)[O][Lu]([O]C(=O)C5)[O]C(=O)C4)CC2)cc1 [T8]
[1]
  % ID/g uptake, H460 tumor, 24 h: 1.00 % ID/g
  % ID/g uptake, H460 tumor, 72 h: 0.44 % ID/g
  % ID/g uptake, Kidney, 24 h: 3.24 % ID/g
  % ID/g uptake, Kidney, 72 h: 0.84 % ID/g
  % ID/g uptake, Liver, 24 h: 0.30 % ID/g
  % ID/g uptake, Liver, 72 h: 0.07 % ID/g
  % ID/g uptake, Plasma, 24 h: 0.17 % ID/g
  % ID/g uptake, Plasma, 72 h: 0.00 % ID/g
[4]
  Kd: 0.48 nM

## CCNC(=O)c1nnc(-c2cc(C(C)C)c(O)cc2O)n1-c1ccc(CN2CCN(C(=O)CCNC(=O)[C@@H](CCC(=O)N3CCN(Cc4ccc(-n5c(C(=O)NCC)nnc5-c5cc(C(C)C)c(O)cc5O)cc4)CC3)NC(=O)CCNC(=O)[C@@H](CCC(=O)O)NC(=O)[C@@H](CCC(=O)O)NC(=O)[C@@H](CCC(=O)O)NC(=O)COCCOCCNC(=O)CNC(=O)[C@H](CCCCN)NC(=O)CNC(=O)CC[C@H](C(=O)O)N3CCN4CCN5CCN(CC3)CC(=O)[O][Lu]([O]C(=O)C5)[O]C(=O)C4)CC2)cc1 [T9]
[1]
  % ID/g uptake, H460 tumor, 24 h: 2.43 % ID/g
  % ID/g uptake, H460 tumor, 72 h: 0.93 % ID/g
  % ID/g uptake, Kidney, 24 h: 8.15 % ID/g
  % ID/g uptake, Kidney, 72 h: 2.78 % ID/g
  % ID/g uptake, Liver, 24 h: 0.62 % ID/g
  % ID/g uptake, Liver, 72 h: 0.25 % ID/g
  % ID/g uptake, Plasma, 24 h: 26.50 % ID/g
  % ID/g uptake, Plasma, 72 h: 1.53 % ID/g
[4]
  Kd: 0.47 nM

## CCNC(=O)c1nnc(-c2cc(C(C)C)c(O)cc2O)n1-c1ccc2c(ccn2CCC2CCN(C(=O)CC[C@H](NC(=O)CC[C@H](C(=O)O)N3CCN4CCN5CCN(CC3)CC(=O)[O][Lu]([O]C(=O)C5)[O]C(=O)C4)C(=O)N3CCC(CCn4ccc5cc(-n6c(C(=O)NCC)nnc6-c6cc(C(C)C)c(O)cc6O)ccc54)CC3)CC2)c1 [T10]
[1]
  % ID/g uptake, H460 tumor, 24 h: 3.91 % ID/g
  % ID/g uptake, H460 tumor, 72 h: 3.18 % ID/g
  % ID/g uptake, Kidney, 24 h: 14.70 % ID/g
  % ID/g uptake, Kidney, 72 h: 7.74 % ID/g
  % ID/g uptake, Liver, 24 h: 7.28 % ID/g
  % ID/g uptake, Liver, 72 h: 4.34 % ID/g
  % ID/g uptake, Plasma, 24 h: 2.29 % ID/g
  % ID/g uptake, Plasma, 72 h: 0.37 % ID/g
[4]
  Kd: 0.77 nM

## CCNC(=O)c1nnc(-c2cc(C(C)C)c(O)cc2O)n1-c1ccc(OC2CCN(C(=O)CCNC(=O)[C@@H](CCC(=O)O)NC(=O)[C@@H](CCC(=O)O)NC(=O)[C@@H](CCC(=O)O)NC(=O)COCCOCCNC(=O)[C@H](CCCCNC(=O)CC[C@H](C(=O)O)N3CCN4CCN5CCN(CC3)CC(=O)[O][Lu]([O]C(=O)C5)[O]C(=O)C4)NC(=O)CCCc3ccc(I)cc3)CC2)cc1 [T11]
[1]
  % ID/g uptake, H460 tumor, 24 h: 6.37 % ID/g
  % ID/g uptake, H460 tumor, 72 h: 1.74 % ID/g
  % ID/g uptake, Kidney, 24 h: 14.90 % ID/g
  % ID/g uptake, Kidney, 72 h: 5.21 % ID/g
  % ID/g uptake, Liver, 24 h: 1.03 % ID/g
  % ID/g uptake, Liver, 72 h: 0.46 % ID/g
  % ID/g uptake, Plasma, 24 h: 0.51 % ID/g
  % ID/g uptake, Plasma, 72 h: 0.02 % ID/g
[4]
  Kd: 0.7 nM

## CCNC(=O)c1nnc(-c2cc(C(C)C)c(O)cc2O)n1-c1ccc(CN2CCN(C(=O)CCNC(=O)[C@@H](CCC(=O)N3CCN(Cc4ccc(-n5c(C(=O)NCC)nnc5-c5cc(C(C)C)c(O)cc5O)cc4)CC3)NC(=O)CCNC(=O)[C@@H](CCC(=O)O)NC(=O)[C@@H](CCC(=O)O)NC(=O)[C@@H](CCC(=O)O)NC(=O)COCCOCCNC(=O)[C@H](Cc3ccccc3)NC(=O)CNC(=O)[C@H](CCCCNC(=O)CC[C@H](C(=O)O)N(CC)CCN3CCN4CCN(C)CC(=O)[O][Lu]([O]C(=O)C4)[O]C(=O)C3)NC(=O)CCCc3ccc(I)cc3)CC2)cc1 [T15]
[1]
  % ID/g uptake, H460 tumor, 24 h: 2.16 % ID/g
  % ID/g uptake, H460 tumor, 72 h: 0.70 % ID/g
  % ID/g uptake, Kidney, 24 h: 12.50 % ID/g
  % ID/g uptake, Kidney, 72 h: 4.37 % ID/g
  % ID/g uptake, Liver, 24 h: 1.78 % ID/g
  % ID/g uptake, Liver, 72 h: 1.16 % ID/g
  % ID/g uptake, Plasma, 24 h: 2.79 % ID/g
  % ID/g uptake, Plasma, 72 h: 0.14 % ID/g
[4]
  Kd: 0.43 nM
